Results on eleven molecules are retold here after patent US20140161804A1 (AbbVie / Abbott, published 2014).

Changes are numbered by the printed parent chain.

The labels stand for the following.
B1: hMAK195-21-h10F7-M11.8 DVD-Ig wt (bispecific antibody, human IgG1, kappa)
heavy: not shown
light: DIQMTQSPSSLSASVGDRVTITCRASQLVSSAVAWYQQKPGKAPKLLIYWASARHTGVPSRFSGSGSGTDFTLTISSLQPEDFATYYCQQHYKTPFTFGQGTKLEIKRGGSGGGGSGDIQMTQSPSSLSASVGDRVTITCRASSGIISYIDWFQQKPGKAPKRLIYATFDLASGVPSRFSGSGSGTDYTLTISSLQPEDFATYYCRQVGSYPETFGQGTKLEIKRTVAAPSVFIFPPSDEQLKSGTASVVCLLNNFYPREAKVQWKVDNALQSGNSQESVTEQDSKDSTYSLSSTLTLSKADYEKHKVYACEVTHQGLSSPVTKSFNRGEC
notes: DVD-Ig; wild-type IgG1, kappa; GS10 linkers; also called HMAK195-21-h10F7-M11.8 HC DVD wt
B2: hMAK195-24-h10F7-M11.8 DVD-Ig wt (bispecific antibody, human IgG1, kappa)
heavy: not shown
light: B1 light with R24K, A53T, R54L, K93R
notes: DVD-Ig; wild-type IgG1, kappa; GS10 linkers; also called HMAK195-24-h10F7-M11.8 HC DVD wt
B3: hMAK195-24-h10F7-M11.8 DVD-Ig (bispecific antibody, human IgG1, kappa, L234A L235A)
heavy: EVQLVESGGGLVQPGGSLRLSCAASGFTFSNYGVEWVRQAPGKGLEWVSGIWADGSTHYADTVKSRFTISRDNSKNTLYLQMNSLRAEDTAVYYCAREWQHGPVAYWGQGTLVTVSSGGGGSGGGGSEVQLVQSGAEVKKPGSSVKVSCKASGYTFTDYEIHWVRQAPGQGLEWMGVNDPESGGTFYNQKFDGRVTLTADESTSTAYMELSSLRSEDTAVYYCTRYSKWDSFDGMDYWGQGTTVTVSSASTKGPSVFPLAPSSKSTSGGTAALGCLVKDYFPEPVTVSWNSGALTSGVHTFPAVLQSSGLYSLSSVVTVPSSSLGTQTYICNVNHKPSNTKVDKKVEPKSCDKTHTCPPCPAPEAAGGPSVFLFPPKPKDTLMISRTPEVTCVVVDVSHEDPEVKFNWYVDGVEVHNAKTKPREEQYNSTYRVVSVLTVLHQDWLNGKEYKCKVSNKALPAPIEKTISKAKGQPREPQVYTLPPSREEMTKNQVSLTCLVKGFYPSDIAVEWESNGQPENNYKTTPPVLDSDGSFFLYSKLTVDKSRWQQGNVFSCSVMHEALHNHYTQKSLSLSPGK
light: B1 light with R24K, A53T, R54L, K93R
notes: DVD-Ig; IgG1 234,235 mut, kappa; GS10 linkers; also called hMAK195-24-GS10-M11 DVD
B4: hMAK195-21-h10F7-M11.8 DVD-Ig (bispecific antibody, human IgG1, kappa, L234A L235A)
heavy: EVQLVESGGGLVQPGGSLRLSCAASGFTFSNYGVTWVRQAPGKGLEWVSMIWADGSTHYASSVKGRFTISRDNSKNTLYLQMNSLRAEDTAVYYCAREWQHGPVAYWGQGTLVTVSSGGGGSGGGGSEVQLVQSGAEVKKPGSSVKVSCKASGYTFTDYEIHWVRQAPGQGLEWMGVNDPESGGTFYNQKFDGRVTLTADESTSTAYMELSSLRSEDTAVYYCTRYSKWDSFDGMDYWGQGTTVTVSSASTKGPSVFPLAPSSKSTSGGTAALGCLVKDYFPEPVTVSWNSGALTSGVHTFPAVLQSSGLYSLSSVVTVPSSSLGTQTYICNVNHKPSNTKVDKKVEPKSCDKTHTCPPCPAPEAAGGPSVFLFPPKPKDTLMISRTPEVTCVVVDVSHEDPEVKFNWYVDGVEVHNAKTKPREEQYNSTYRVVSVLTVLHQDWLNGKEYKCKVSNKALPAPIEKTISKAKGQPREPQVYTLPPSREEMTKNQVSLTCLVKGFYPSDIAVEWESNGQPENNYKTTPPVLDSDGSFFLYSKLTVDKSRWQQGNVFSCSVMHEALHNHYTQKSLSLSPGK
light: B1 light
notes: DVD-Ig, TNF outer / IL-17 inner domain; IgG1 234,235 mut, kappa; GS10 linkers; also called hMAK195-21-GS10-M11 DVD
B5: hMAK199-4-h10F7-M11.8 DVD-Ig (bispecific antibody, human IgG1, kappa, L234A L235A)
heavy: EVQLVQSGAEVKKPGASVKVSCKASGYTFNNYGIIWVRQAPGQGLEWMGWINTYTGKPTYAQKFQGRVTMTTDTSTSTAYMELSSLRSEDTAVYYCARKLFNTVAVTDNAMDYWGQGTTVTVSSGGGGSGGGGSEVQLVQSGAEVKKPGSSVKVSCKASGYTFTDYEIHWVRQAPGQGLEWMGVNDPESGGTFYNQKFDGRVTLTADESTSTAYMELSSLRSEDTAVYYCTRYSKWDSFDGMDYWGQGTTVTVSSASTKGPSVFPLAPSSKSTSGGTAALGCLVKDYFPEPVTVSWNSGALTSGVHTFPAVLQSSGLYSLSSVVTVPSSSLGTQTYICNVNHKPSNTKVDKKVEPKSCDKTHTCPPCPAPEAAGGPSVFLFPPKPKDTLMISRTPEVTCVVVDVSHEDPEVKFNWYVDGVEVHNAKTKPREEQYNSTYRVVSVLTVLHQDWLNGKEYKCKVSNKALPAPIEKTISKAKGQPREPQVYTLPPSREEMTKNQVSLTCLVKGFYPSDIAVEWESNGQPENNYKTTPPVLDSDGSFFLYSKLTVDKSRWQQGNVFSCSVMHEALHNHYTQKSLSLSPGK
light: DIQMTQSPSSLSASVGDRVTITCRASQDIENYLNWYQQKPGKAPKLLIYYTSRLQSGVPSRFSGSGSGTDFTLTISSLQPEDFATYFCQQGNTQPPTFGQGTKLEIKRGGSGGGGSGDIQMTQSPSSLSASVGDRVTITCRASSGIISYIDWFQQKPGKAPKRLIYATFDLASGVPSRFSGSGSGTDYTLTISSLQPEDFATYYCRQVGSYPETFGQGTKLEIKRTVAAPSVFIFPPSDEQLKSGTASVVCLLNNFYPREAKVQWKVDNALQSGNSQESVTEQDSKDSTYSLSSTLTLSKADYEKHKVYACEVTHQGLSSPVTKSFNRGEC
notes: DVD-Ig; IgG1 234,235 mut, kappa; GS10 linkers; also called HMAK199-4-GS10-H10F7-M11 DVD
B6: hMAK199-4-h10F7-M11.8 DVD-Ig wt (bispecific antibody, human IgG1, kappa)
heavy: not shown
light: B5 light
notes: DVD-Ig; wild-type IgG1, kappa; GS10 linkers; Uncertain; also called HMAK199-4-h10F7-M11.8 HC DVD wt
B7: h10F7-M11-hMAk199-4.4 DVD-Ig wt (bispecific antibody, human IgG1, kappa)
heavy: not shown
light: DIQMTQSPSSLSASVGDRVTITCRASSGIISYIDWFQQKPGKAPKRLIYATFDLASGVPSRFSGSGSGTDYTLTISSLQPEDFATYYCRQVGSYPETFGQGTKLEIKRTVAAPDIQMTQSPSSLSASVGDRVTITCRASQDIENYLNWYQQKPGKAPKLLIYYTSRLQSGVPSRFSGSGSGTDFTLTISSLQPEDFATYFCQQGNTQPPTFGQGTKLEIKRTVAAPSVFIFPPSDEQLKSGTASVVCLLNNFYPREAKVQWKVDNALQSGNSQESVTEQDSKDSTYSLSSTLTLSKADYEKHKVYACEVTHQGLSSPVTKSFNRGEC
notes: DVD-Ig, IL-17 outer / TNF inner domain; wild-type IgG1, kappa; short linkers
B8: h10F7-M11-hMAK199-4.8 DVD-Ig wt (bispecific antibody, human IgG1, kappa)
heavy: not shown
light: DIQMTQSPSSLSASVGDRVTITCRASSGIISYIDWFQQKPGKAPKRLIYATFDLASGVPSRFSGSGSGTDYTLTISSLQPEDFATYYCRQVGSYPETFGQGTKLEIKRGGSGGGGSGDIQMTQSPSSLSASVGDRVTITCRASQDIENYLNWYQQKPGKAPKLLIYYTSRLQSGVPSRFSGSGSGTDFTLTISSLQPEDFATYFCQQGNTQPPTFGQGTKLEIKRTVAAPSVFIFPPSDEQLKSGTASVVCLLNNFYPREAKVQWKVDNALQSGNSQESVTEQDSKDSTYSLSSTLTLSKADYEKHKVYACEVTHQGLSSPVTKSFNRGEC
notes: DVD-Ig, IL-17 outer / TNF inner domain; wild-type IgG1, kappa; GS10 linkers
B9: hMAK199-6-h10F7-M11.8 DVD-Ig (bispecific antibody, human IgG1, kappa, L234A L235A)
heavy: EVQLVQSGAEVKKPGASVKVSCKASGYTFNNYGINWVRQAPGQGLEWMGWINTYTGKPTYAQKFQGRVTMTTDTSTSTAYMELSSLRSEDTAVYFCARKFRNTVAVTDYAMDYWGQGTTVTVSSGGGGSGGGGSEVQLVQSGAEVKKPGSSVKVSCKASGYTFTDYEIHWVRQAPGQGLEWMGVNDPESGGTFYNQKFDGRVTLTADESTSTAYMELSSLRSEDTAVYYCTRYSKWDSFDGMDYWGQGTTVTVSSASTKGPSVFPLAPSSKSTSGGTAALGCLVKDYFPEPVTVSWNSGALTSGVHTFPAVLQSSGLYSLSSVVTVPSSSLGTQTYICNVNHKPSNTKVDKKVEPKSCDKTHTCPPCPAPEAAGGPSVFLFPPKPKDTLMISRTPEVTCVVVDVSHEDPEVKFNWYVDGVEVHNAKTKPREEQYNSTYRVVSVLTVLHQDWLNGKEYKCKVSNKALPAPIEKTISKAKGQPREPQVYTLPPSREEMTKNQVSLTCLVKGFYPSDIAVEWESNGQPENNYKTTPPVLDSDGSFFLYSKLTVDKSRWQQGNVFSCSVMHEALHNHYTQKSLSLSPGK
light: B5 light with E30Y, N31D, Y32V, T51A, F87Y, N92I, Q94L
notes: DVD-Ig; IgG1 234,235 mut, kappa; GS10 linkers; also called HMAK199-6-GS10-H10F7-M11 DVD
B10: hMAK195-24-h10F7-M11.4 DVD-Ig wt (bispecific antibody, human IgG1, kappa)
heavy: not shown
light: DIQMTQSPSSLSASVGDRVTITCKASQLVSSAVAWYQQKPGKAPKLLIYWASTLHTGVPSRFSGSGSGTDFTLTISSLQPEDFATYYCQQHYRTPFTFGQGTKLEIKRTVAAPDIQMTQSPSSLSASVGDRVTITCRASSGIISYIDWFQQKPGKAPKRLIYATFDLASGVPSRFSGSGSGTDYTLTISSLQPEDFATYYCRQVGSYPETFGQGTKLEIKRTVAAPSVFIFPPSDEQLKSGTASVVCLLNNFYPREAKVQWKVDNALQSGNSQESVTEQDSKDSTYSLSSTLTLSKADYEKHKVYACEVTHQGLSSPVTKSFNRGEC
notes: DVD-Ig; wild-type IgG1 (CG1 Z NONA), kappa; short (SS) linkers ASTKGP / TVAAP; also called HMAK195-24-SS-H10F7-M11 DVD
B11: hMAK199-4-h10F7-M11.4 DVD-Ig wt (bispecific antibody, human IgG1, kappa)
heavy: not shown
light: DIQMTQSPSSLSASVGDRVTITCRASQDIENYLNWYQQKPGKAPKLLIYYTSRLQSGVPSRFSGSGSGTDFTLTISSLQPEDFATYFCQQGNTQPPTFGQGTKLEIKRTVAAPDIQMTQSPSSLSASVGDRVTITCRASSGIISYIDWFQQKPGKAPKRLIYATFDLASGVPSRFSGSGSGTDYTLTISSLQPEDFATYYCRQVGSYPETFGQGTKLEIKRTVAAPSVFIFPPSDEQLKSGTASVVCLLNNFYPREAKVQWKVDNALQSGNSQESVTEQDSKDSTYSLSSTLTLSKADYEKHKVYACEVTHQGLSSPVTKSFNRGEC
notes: DVD-Ig; wild-type IgG1 (CG1 Z NONA), kappa; short (SS) linkers; also called HMAK199-4-SS-H10F7-M11 DVD

T2 sequence (P48094 77-233 limits assumed): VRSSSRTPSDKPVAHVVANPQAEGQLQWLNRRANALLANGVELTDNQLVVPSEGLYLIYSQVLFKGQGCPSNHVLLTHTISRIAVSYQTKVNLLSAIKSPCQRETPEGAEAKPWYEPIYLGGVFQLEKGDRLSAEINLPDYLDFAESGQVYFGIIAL

One experiment deals with T1, Cynomolgus monkey IL-17A (cynomolgus monkey, UniProt A0A2K5TTB0 24-155).
T1 construct: also called Cyno IL-17AA; Cyno IL17AA
T1 sequence (A0A2K5TTB0 entry or part of it): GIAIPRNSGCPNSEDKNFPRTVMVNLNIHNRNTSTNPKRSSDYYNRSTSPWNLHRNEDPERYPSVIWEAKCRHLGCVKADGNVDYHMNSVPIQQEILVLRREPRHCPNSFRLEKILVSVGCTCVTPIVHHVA
In words: SPR (Biacore T200), DVD-Ig captured by anti-human IgG Fc, antigen in solution. The method, then:
(§1) The binding of antibodies to purified recombinant IL-17 and TNFα proteins were determined by surface plasmon resonance-based measurements with a Biacore® T200 instrument (GE Healthcare) using running HBS-EP (10 mM HEPES [pH 7.4], 150 mM NaCl, 3 mM EDTA, and 0.005% surfactant P20) containing 0.1 mg/ml BSA at 25° C. All chemicals were obtained from Biacore® AB (GE Healthcare) or otherwise from a different source as described in the text. Approximately 5000 RU of goat anti-human IgG (Fcγ) fragment specific polyclonal antibody (Pierce Biotechnology Inc, Rockford, Ill.) diluted in 10 mM sodium acetate (pH 4.5) was directly immobilized across a CM5 research grade biosensor chip using a standard amine coupling kit according to manufacturer's instructions and procedures at 25 ug/ml. Unreacted moieties on the biosensor surface were blocked with ethanolamine. Modified carboxymethyl dextran surface in flowcell 2, 3 and 4 were used as a reaction surface. Modified carboxymethyl dextran with goat IgG in flow cell 1 was used as the reference surface. For kinetic analysis, rate equations derived from the 1:1 Langmuir binding model were fitted simultaneously to association and dissociation phases of all six injections (using global fit analysis with local float for Rmax) with the use of Biacore T200 Evaluation software v.1.0. Purified antibodies were diluted in HEPES-buffered saline for capture across goat anti-human IgG specific reaction surfaces. Antibodies to be captured as ligand (1-5 μg/ml) were injected over reaction matrices at a flow rate of 50 μl/minute. Association phase was monitored for 5 minutes, while dissociation phase was monitored for 10-60 minutes to accommodate for slower off-rates. The association and dissociation rate constants, ka (unit M-1 s-1) and kd (unit s-1) were determined under a continuous flow rate of 50 μl/minute. Rate constants were derived by making kinetic binding measurements at six different antigen concentrations ranging from 0.78 nM to 100 nM, depending on the species of IL-17 or TNFα tested. The association ka, dissociation rate kd and equilibrium dissociation constant KD were calculated with the use of the same Biacore T200 Evaluation software v.1.0.
B1: the Kd – broadly, the free concentration of one partner at which half of the binding sites on the other are occupied at equilibrium, for simple one-to-one binding – is 0.0109 nM; the off-rate (koff) (in general, a measure of how fast the partners let go of each other) is 2.21e-06 s⁻¹; the kon (commonly the second-order rate constant of association) turned out to be 203000 M⁻¹ s⁻¹.
B2 gave a Kd of 0.0201 nM, a dissociation rate constant (koff) of 4.29e-06 s⁻¹ and an on-rate constant (kon) of 214000 M⁻¹ s⁻¹.
For B3 the same measures were 0.0241 nM, 6.25e-06 s⁻¹ and 259000 M⁻¹ s⁻¹.
The molecule B4 displayed a Kd of 0.0253 nM, an off-rate (koff) of 6.28e-06 s⁻¹ and a kon of 248000 M⁻¹ s⁻¹.
For B5 the same measures were 0.00861 nM, 2.57e-06 s⁻¹ and 299000 M⁻¹ s⁻¹.
For B6, in that order: 0.0113 nM, 3.15e-06 s⁻¹ and 278000 M⁻¹ s⁻¹.

Another experiment addresses T2, Rhesus TNFa (rhesus, UniProt P48094 77-233).
T2 construct: also called Rhesus TNF-alpha
Described as above. The procedure: as §1
With B1, the Kd was found to be 0.031 nM, the koff came out at 0.000141 s⁻¹ and the on-rate (kon) worked out at 4.56e+06 M⁻¹ s⁻¹.
For B2, in that order: 0.0752 nM, 0.00046 s⁻¹ and 6.12e+06 M⁻¹ s⁻¹.
For B3, in that order: 0.0716 nM, 0.000343 s⁻¹ and 4.78e+06 M⁻¹ s⁻¹.
For B4 the same measures were 0.0254 nM, 0.000132 s⁻¹ and 5.21e+06 M⁻¹ s⁻¹.
In turn, B5 yielded a Kd of 0.00772 nM, an off-rate constant (koff) of 2.25e-05 s⁻¹ and an on-rate (kon) of 2.91e+06 M⁻¹ s⁻¹.
B6 had a dissociation constant (Kd) of 0.00813 nM, a koff of 2.48e-05 s⁻¹ and a kon of 3.05e+06 M⁻¹ s⁻¹.

In the next experiment the target is T3, Human IL-17A (human, UniProt Q16552 20-155, limits assumed).
T3 construct: Biotinylated in the ELISAs; purified recombinant protein in SPR; also called hIL17A; hIL-17
T3 sequence (Q16552 20-155 limits assumed): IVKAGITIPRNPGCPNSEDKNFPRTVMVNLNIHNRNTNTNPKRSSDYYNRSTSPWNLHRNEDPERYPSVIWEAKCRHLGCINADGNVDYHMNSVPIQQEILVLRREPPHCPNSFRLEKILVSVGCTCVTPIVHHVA
The experiment is described as above. The method, then: as §1
In the case of B1, the dissociation constant (Kd) was 0.0386 nM, the koff is 9.26e-06 s⁻¹ and the on-rate (kon) amounted to 239000 M⁻¹ s⁻¹.
The molecule B2 came in with a Kd of 0.0363 nM, a dissociation rate constant (koff) of 8.48e-06 s⁻¹ and a kon of 233000 M⁻¹ s⁻¹.
For B3, in that order: 0.0427 nM, 1.07e-05 s⁻¹ and 251000 M⁻¹ s⁻¹.
B4 returned an equilibrium dissociation constant (Kd) of 0.0434 nM, a koff of 1.05e-05 s⁻¹ and a kon of 242000 M⁻¹ s⁻¹.
For B5 the same measures were 0.0271 nM, 8.76e-06 s⁻¹ and 323000 M⁻¹ s⁻¹.
Turning to B6, binding was characterised by a dissociation constant (Kd) of 0.0259 nM and the kon was 311000 M⁻¹ s⁻¹.

A further experiment deals with T3, Human IL-17A. In words: ELISA, captured DVD-Ig, biotin-human IL-17 titrated. The method, then: The following protocol is used to characterize the binding of TNF/IL-17 DVD-Ig proteins to human TNF and IL-17 by enzyme-linked immunosorbent assay (ELISA). An ELISA plate was coated with 50 μl per well of goat anti mouse IgG-Fc at 2 μg/ml, overnight at 4° C. The plate was washed 3 times with PBS/Tween. 50 μl Mab diluted to 1 μg/ml in PBS/0.1% BSA was added to appropriate wells and incubated for 1 hour at room temperature (RT). The plate was washed 3 times with PBS/Tween. 50 μl of serial diluted biotin-human TNF or IL-17 was added to appropriate wells and incubated for 1 hour at RT. The plate was washed 3 times with PBS/Tween. 50 μl of streptavidin-HRP diluted 1:10,000 in PBS/0.1% BSA was added to appropriate wells and incubated for 1 hour at RT. The plate was washed 3 times with PBS/Tween. 50 μl of TMB was added to appropriate wells and the reaction allowed to proceed for 1 minute. The reaction was stopped with 50 μl/well 2N H₂SO₄ and the absorbance read at 450 nm.
In general terms: An ELISA detects its analyte on a solid surface through an enzyme-linked reagent.
For B7, the concentration giving a half-maximal response (EC50) – broadly, the midpoint of the concentration-response curve – turned out to be 0.04 nM.
Still for that read-out and setting: the figure for B8 is 0.05 nM; for B1 it is 0.11 nM.
The same measure, in the same setting: with B2 the figure was 0.12 nM.
Molecule B3 displayed a concentration for a half-maximal effect (EC50) of 0.084 nM.
Same read-out and setting: with B4 the figure was 0.095 nM.
For B5, the half-maximal effective concentration (EC50) was 0.13 nM.
Still for that read-out and setting: the figure for B9 is 0.104 nM.
On the same count and under the same terms, the figure for B6 is 0.1 nM; for B10 it is over 0.5 nM; for B11 it is over 0.5 nM.
